B1: Ceroid-lipofuscinosis neuronal protein 6 (Homo sapiens), Q9NWW5 (parent)
chain: MEATRRRQHLGATGGPGAQLGASFLQARHGSVSADEAARTAPFHLDLWFYFTLQNWVLDFGRPIAMLVFPLEWFPLNKPSVGDYFHMAYNVITPFLLLKLIERSPRTLPRSITYVSIIIFIMGASIHLVGDSVNHRLLFSGYQHHLSVRENPIIKNLKPETLIDSFELLYYYDEYLGHCMWYIPFFLILFMYFSGCFTASKAESLIPGPALLLVAPSGLYYWYLVTEGQIFILFIFTFFAMLALVLHQKRKRLFLDSNGLFLFSSFALTLLLVALWVAWLWNDPVLRKKYPGVIYVPEPWAFYTLHVSSRH
B2: Catenin alpha-3 (Homo sapiens), Q9UI47-2 (parent)
chain: MSAETPITLNIDPQDLQVQTFTVEKLLEPLIIQVTTLVNCPQNPSSRKKGRSKRASVLLASVEEATWNLLDKGEKIAQEATVLKDELTASLEEVRKESEALKVSAERFTDDPCFLPKREAVVQAARALLAAVTRLLILADMIDVMCLLQHVSAFQRTFESLKNVANKSDLQKTYQKLGKELENLDYLAFKRQQDLKSPNQRDEIAGARASLKENSPLLHSICSACLEHSDVASLKASKDTVCEEIQNALNVISNASQGIQNMTTPPEPQAATLGSALDELENLIVLNPLTVTEEEIRPSLEKRLEAIISGAALLADSSCTRDLHRERIIAECNAIRQALQDLLSEYMNNAGKKERSNTLNIALDNMCKKTRDLRRQLRKAIIDHVSDSFLDTTVPLLVLIEAAKNGREKEIKEYAAIFHEHTSRLVEVANLACSMSTNEDGIKIVKIAANHLETLCPQIINAALALAARPKSQAVKNTMEMYKRTWENHIHVLTEAVDDITSIDDFLAVSGMFLFF
partner: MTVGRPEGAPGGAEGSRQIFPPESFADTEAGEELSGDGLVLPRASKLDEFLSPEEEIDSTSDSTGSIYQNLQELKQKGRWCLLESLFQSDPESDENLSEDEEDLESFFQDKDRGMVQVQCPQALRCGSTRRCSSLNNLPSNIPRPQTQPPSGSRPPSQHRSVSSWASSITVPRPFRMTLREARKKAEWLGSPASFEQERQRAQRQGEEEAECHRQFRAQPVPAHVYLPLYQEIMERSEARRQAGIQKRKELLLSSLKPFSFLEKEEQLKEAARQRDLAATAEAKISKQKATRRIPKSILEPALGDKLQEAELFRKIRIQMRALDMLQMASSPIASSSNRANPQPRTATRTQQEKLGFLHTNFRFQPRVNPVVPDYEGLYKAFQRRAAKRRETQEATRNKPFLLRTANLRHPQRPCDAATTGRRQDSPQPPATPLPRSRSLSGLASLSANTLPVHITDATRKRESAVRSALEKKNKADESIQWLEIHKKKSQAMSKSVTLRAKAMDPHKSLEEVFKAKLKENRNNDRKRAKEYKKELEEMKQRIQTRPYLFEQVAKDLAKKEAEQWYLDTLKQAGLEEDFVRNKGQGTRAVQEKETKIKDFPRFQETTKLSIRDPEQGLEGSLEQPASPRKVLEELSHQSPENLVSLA
B3: Very-long-chain enoyl-CoA reductase (Homo sapiens), Q9NZ01 (parent)
chain: MKHYEVEILDAKTREKLCFLDKVEPHATIAEIKNLFTKTHPQWYPARQSLRLDPKGKSLKDEDVLQKLPVGTTATLYFRDLGAQISWVTVFLTEYAGPLFIYLLFYFRVPFIYGHKYDFTSSRHTVVHLACICHSFHYIKRLLETLFVHRFSHGTMPLRNIFKNCTYYWGFAAWMAYYINHPLYTPPTYGAQQVKLALAIFVICQLGNFSIHMALRDLRPAGSKTRKIPYPTKNPFTWLFLLVSCPNYTYEVGSWIGFAIMTQCLPVALFSLVGFTQMTIWAKGKHRSYLKEFRDYPPLRMPIIPFLL
partner: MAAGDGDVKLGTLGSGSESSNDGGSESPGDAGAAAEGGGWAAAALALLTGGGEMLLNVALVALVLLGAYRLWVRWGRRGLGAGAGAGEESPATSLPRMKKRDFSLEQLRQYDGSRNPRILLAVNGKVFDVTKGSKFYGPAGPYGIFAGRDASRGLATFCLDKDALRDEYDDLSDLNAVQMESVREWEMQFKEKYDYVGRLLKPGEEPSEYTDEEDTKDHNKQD
B4: Golgi SNAP receptor complex member 2 (Homo sapiens), O14653 (parent)
chain: MDPLFQQTHKQVHEIQSCMGRLETADKQSVHIVENEIQASIDQIFSRLERLEILSSKEPPNKRQNARLRVDQLKYDVQHLQTALRNFQHRRHAREQQERQREELLSRTFTTNDSDTTIPMDESLQFNSSLQKVHNGMDDLILDGHNILDGLRTQRLTLKGTQKKILDIANMLGLSNTVMRLIEKRAFQDKYFMIGGMLLTCVVMFLVVQYLT
partner: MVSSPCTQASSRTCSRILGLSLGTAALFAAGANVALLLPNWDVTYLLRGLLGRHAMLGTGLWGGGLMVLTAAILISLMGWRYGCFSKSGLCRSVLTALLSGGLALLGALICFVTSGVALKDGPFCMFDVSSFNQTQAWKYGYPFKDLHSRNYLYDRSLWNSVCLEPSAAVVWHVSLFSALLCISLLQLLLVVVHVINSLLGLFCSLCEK
B5: Catenin alpha-3 (Homo sapiens), Q9UI47-2 (parent)
chain: B2 chain
partner: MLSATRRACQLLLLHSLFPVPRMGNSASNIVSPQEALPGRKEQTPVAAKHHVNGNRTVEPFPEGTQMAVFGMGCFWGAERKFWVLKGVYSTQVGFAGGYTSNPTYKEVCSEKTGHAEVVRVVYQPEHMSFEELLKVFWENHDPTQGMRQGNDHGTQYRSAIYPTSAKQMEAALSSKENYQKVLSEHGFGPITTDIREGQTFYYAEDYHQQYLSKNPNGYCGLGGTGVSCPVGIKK
B6: Catenin alpha-3 (Homo sapiens), Q9UI47-2 (parent)
chain: B2 chain
partner: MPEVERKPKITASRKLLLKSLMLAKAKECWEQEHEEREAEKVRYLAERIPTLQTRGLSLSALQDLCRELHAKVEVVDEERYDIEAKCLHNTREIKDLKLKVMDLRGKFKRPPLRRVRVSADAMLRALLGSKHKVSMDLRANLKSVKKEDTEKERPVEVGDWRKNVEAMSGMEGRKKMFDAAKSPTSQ
B7: Succinate--CoA ligase [ADP-forming] subunit beta, mitochondrial (Homo sapiens), Q9P2R7 (parent)
chain: MAASMFYGRLVAVATLRNHRPRTAQRAAAQVLGSSGLFNNHGLQVQQQQQRNLSLHEYMSMELLQEAGVSVPKGYVAKSPDEAYAIAKKLGSKDVVIKAQVLAGGRGKGTFESGLKGGVKIVFSPEEAKAVSSQMIGKKLFTKQTGEKGRICNQVLVCERKYPRREYYFAITMERSFQGPVLIGSSHGGVNIEDVAAESPEAIIKEPIDIEEGIKKEQALQLAQKMGFPPNIVESAAENMVKLYSLFLKYDATMIEINPMVEDSDGAVLCMDAKINFDSNSAYRQKKIFDLQDWTQEDERDKDAAKANLNYIGLDGNIGCLVNGAGLAMATMDIIKLHGGTPANFLDVGGGATVHQVTEAFKLITSDKKVLAILVNIFGGIMRCDVIAQGIVMAVKDLEIKIPVVVRLQGTRVDDAKALIADSGLKILACDDLDEAARMVVKLSEIVTLAKQAHVDVKFQLPI
partner: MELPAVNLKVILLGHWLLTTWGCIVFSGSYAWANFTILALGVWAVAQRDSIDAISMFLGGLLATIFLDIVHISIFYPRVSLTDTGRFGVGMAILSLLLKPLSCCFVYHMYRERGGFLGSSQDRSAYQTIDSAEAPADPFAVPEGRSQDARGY

Variants of: B1
Settings: with stx1a_human STX1A

Variant	effect of a mutation on the interaction
G123D	with no effect
R103Q	with no effect
L47F	with no effect

Variants of: B1
Settings: with ar13b_human ARL13B

Variant	effect of a mutation on the interaction
G123D	with no effect
L47F	with no effect

Variants of: B1
Settings: with cxa8_human GJA8, P48165
cxa8_human GJA8, P48165, sequence (P48165 whole entry): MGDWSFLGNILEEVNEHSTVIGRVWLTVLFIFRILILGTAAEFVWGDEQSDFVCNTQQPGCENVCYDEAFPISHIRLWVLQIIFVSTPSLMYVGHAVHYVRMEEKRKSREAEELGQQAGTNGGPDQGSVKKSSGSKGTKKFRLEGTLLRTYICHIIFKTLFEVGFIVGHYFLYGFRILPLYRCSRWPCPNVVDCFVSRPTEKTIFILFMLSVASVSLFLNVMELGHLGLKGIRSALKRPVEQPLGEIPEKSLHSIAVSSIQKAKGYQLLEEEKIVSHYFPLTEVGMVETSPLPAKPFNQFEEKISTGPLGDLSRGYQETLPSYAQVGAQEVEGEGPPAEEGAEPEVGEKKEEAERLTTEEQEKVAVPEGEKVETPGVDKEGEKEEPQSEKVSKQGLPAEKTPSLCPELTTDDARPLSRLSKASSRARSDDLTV

Variant	effect of a mutation on the interaction
G123D	with no effect

Variants of: B1
Settings: with ki2l3_human KIR2DL3, P43628
ki2l3_human KIR2DL3, P43628, sequence (P43628 whole entry): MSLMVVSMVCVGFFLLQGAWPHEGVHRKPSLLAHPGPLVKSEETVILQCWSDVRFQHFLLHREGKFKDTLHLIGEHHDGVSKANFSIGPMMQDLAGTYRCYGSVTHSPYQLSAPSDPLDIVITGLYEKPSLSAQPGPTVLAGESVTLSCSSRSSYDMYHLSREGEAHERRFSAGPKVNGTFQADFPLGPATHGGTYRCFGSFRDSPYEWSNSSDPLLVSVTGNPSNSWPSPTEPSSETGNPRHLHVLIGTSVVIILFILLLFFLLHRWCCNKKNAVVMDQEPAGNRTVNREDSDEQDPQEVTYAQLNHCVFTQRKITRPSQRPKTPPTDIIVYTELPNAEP

Variant	effect of a mutation on the interaction
G123D	with no effect
L47F	with no effect

Variants of: B1
Settings: with lrc25_human LRRC25, Q8N386
lrc25_human LRRC25, Q8N386, sequence (Q8N386 whole entry): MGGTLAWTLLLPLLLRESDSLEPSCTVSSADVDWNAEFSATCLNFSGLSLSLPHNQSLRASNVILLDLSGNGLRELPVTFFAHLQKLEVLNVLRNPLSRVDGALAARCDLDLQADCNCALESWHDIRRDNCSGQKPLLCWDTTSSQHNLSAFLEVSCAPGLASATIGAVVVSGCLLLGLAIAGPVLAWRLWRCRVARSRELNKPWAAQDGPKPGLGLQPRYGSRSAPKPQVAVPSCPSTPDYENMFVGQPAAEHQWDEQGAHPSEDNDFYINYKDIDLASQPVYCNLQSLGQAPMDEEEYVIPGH

Variant	effect of a mutation on the interaction
G123D	with no effect
L47F	with no effect

Variants of: B1
Settings: with tm139_human TMEM139, Q8IV31
tm139_human TMEM139, Q8IV31, sequence (Q8IV31 whole entry): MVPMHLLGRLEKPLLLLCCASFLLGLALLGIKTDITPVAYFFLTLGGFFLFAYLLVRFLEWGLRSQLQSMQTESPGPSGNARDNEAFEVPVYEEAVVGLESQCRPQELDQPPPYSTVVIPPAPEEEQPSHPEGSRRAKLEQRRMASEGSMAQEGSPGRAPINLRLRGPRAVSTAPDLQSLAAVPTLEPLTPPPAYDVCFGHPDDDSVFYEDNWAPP

Variant	effect of a mutation on the interaction
G123D	with no effect
L47F	with no effect

Variants of: B1
Settings: with cd79a_human CD79A

Variant	effect of a mutation on the interaction
L47F	with no effect

Variants of: B2
Settings: with FAM161B

Variant	effect of a mutation on the interaction
V94D	with no effect

Variants of: B3
Settings: with pgrc2_human PGRMC2, O15173

Variant	effect of a mutation on the interaction
P182L	with no effect

Variants of: B4
Settings: with TM4SF19, Q96DZ7

Variant	effect of a mutation on the interaction
G144W	with no effect

Variants of: B5
Settings: with msra_human MSRA

Variant	effect of a mutation on the interaction
V94D	with no effect

Variants of: B6
Settings: with tnni1_human TNNI1, P19237

Variant	effect of a mutation on the interaction
V94D	with no effect

Variants of: B7
Settings: with AGTRAP

Variant	effect of a mutation on the interaction
D251N	disrupting interaction strength
G118R	disrupting interaction strength
